Test results as given in US20260263521A1 (AIMED BIO, published 2026).
Numbering of substitutions follows the chain as printed. Names and notes keep the numbering of the source. Each block holds one binder with its values, some of them ahead of it.

What was measured:
[1] = biological target: T1, mouse CD200R1 protein (R&D systems, 2554-CD) (mouse, UniProt Q9ES57 26-238, limits assumed); test: ELISA, plate-bound mouse CD200R1 (2 ug/mL), IgG 0.0192-300 nM, OD 450 nm; panel 'mouse CD200R1'
T1 construct: Bought; construct not described
T1 sequence (looked up): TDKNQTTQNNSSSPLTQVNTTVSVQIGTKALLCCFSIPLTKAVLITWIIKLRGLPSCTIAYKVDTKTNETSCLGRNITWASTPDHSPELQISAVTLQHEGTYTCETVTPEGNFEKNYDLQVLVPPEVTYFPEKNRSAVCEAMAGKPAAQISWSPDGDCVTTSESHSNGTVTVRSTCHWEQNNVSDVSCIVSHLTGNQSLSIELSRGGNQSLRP
Protocol: 96-well plates were coated with human CD200R1 (R&D systems, 3414-CD) and mouse CD200R1 protein (R&D systems, 2554-CD) at a concentration of 2 μg/mL at 4° C. for 16 hours and then were blocked with 3% skim milk.
Color was developed with a TMB substrate solution (Thermo Scientific, 34029, 1-Step™ TMB-ELISA Ultra Substrate Solution). The color reaction was stopped with stop solution (Invitrogen, SS04, ELISA Stop Solution). The absorbance was measured at an optical density of 450 nm.

[2] = biological target: T2, monkey CD200RLa (Sino Biological, 11576-C02H) recombinant protein (monkey (cyno), UniProt A0A2K5W6R0 30-246); test: ELISA, plate-bound monkey CD200RLa (2 ug/mL), antibody 0.0192-300 nM, O.D 450 nm; panel 'recombinant cynomolgus CD200RLa/Fc'
T2 construct: Bought; construct not described; also called cyno CD200RLa
T2 sequence: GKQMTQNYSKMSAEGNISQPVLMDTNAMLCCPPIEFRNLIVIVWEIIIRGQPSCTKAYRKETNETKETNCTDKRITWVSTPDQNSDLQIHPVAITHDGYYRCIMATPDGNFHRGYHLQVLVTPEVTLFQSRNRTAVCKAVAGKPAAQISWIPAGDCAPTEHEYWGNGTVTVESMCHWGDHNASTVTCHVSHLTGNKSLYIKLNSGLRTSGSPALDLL
Protocol: (§1) 96-well plates were coated with human CD200RLa (Sino Biological, 11620-H08H) and monkey CD200RLa (Sino Biological, 11576-C02H) recombinant proteins at a concentration of 2 μg/mL at 4° C. for 16 hours, and blocked with 3% skim milk for 1 hour. […] Color was developed with a TMB substrate solution (Thermo Scientific, 34029, 1-Step™ Ultra TMB-ELISA Substrate Solution). The color reaction was stopped with stop solution (Invitrogen, SS04, ELISA Stop Solution).

[3] = biological target: T3, human CD200RLa (Sino Biological, 11620-H08H) recombinant protein (human, UniProt Q6Q8B3 24-239); test: ELISA, plate-bound human CD200RLa (2 ug/mL), antibody 0.0192-300 nM, O.D 450 nm; panel 'recombinant human CD200RLa'
T3 construct: Bought; construct not described
T3 sequence (looked up): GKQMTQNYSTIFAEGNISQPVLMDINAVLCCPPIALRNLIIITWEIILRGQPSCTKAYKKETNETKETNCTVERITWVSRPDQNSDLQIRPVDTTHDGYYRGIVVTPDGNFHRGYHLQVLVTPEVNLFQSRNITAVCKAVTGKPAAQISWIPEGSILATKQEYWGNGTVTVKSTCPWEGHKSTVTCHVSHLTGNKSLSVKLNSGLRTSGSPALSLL
Protocol: as §1

[4] = biological target: T4, cynomolgus CD200R1 with dual His-tags (cynomolgus, UniProt G7NZT0 25-266); test: SPR (Biacore CM5), His-tagged antigen captured by anti-histidine antibody, antibody as analyte, 1:1 Langmuir fit
T4 construct: Captured on the SPR chip by an anti-histidine antibody; also called CCD200R1-his; cCD200R1-his; not shown: dual His-tags
T4 sequence: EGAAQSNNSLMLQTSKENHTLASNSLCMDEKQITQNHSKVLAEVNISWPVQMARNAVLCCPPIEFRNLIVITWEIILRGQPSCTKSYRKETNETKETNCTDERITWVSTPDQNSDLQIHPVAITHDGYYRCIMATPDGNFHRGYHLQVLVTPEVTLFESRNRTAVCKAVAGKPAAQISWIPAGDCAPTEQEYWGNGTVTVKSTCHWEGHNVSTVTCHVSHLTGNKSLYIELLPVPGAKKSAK
Protocol: (§2) For the experiment, 30 μg/mL of an anti-histidine antibody was conjugated to a CM5 biacore chip via an amine bond while allowing to flow at 10 μl/min (10,000 RU). Then, 0.25 μg/mL of human or cynomolgus CD200R1 with dual His-tags was captured onto the completed chip for 60 seconds, and the binding ability of each antibody was analyzed. All experiments were performed by association of antibodies for 120 seconds and dissociation of antibodies for 600 seconds. The resulting graphs were fitted using a 1:1 Langmuir binding kinetic model (FIG. 16), and the kinetics of each antibody were calculated.

[5] = biological target: T5, human CD200R1 with dual His-tags (human, UniProt Q8TD46 25-265); test: as above
T5 construct: Captured on the SPR chip by an anti-histidine antibody; also called hCD200R1-his; not shown: dual His-tags
T5 sequence (looked up): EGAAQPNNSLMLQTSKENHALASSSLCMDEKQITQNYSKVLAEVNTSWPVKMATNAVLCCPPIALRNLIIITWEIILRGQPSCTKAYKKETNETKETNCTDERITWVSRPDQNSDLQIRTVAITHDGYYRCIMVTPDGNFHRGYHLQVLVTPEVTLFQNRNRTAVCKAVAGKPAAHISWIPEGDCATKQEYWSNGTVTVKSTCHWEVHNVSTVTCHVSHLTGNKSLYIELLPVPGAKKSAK
Protocol: as §2

[6] = biological target: T6, human CD200R1 expressed on cells (Jurkat-CD200R1, U937-CD200R1, HH cells) (human, UniProt Q8TD46 25-348); test: flow cytometry, Jurkat-CD200R cells
T6 construct: whole, on cells; also called HH (CRL-2105); cell surface-expressed CD200R1
T6 sequence (looked up): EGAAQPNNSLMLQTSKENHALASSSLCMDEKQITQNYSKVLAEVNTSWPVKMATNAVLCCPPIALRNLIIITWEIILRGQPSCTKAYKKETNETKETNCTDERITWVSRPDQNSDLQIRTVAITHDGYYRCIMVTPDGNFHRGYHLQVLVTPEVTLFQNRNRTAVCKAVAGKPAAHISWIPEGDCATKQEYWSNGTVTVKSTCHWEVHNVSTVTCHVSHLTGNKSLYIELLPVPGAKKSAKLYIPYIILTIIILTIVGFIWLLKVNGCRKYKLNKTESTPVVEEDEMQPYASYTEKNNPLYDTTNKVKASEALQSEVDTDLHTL
Protocol: Two additional wells were treated with 10 μl of mouse IgG1K (BD, #555751) and 5 μl of commercial CD200R1 antibody (Biolegend, #329308) to determine CD200R1 expression on the cell line surface for cell quality control.
The antibodies were serially diluted 10-fold from a maximum concentration of 100 nM to 10 nM, 1 nM, […], and were added to the pre-seeded cells. After reaction for 1 hour at 4° C., the cells were treated with Alexa-647 goat anti-human IgG (H+L) cross-adsorbed secondary antibody (Invitrogen, #A21445) and incubated for an additional 30 minutes at 4° C. After washing twice with FACS buffer, flow cytometry was performed using a Novocyte Flow cytometer (Agilent). Using GraphPad Prism software, the EC₅₀ was determined using a nonlinear graph model of log (agonist) vs. response-variable slope, as shown in Table 32.

Hybrid CD200R1 MH = biological target: T7, Hybrid CD200R1 MH (mouse;human, UniProt Q9ES57;Q8TD46); test: ELISA, plate-bound MH hybrid (1 ug/mL), antibody 0.0192-300 nM, O.D 450 nm; panel 'P001 MH domain-1)'
T7 construct: single domain; mouse D1 over human D2; also called MH hybrid domain; P001 MH domain
T7 sequence (hybrid extracellular part, looked up): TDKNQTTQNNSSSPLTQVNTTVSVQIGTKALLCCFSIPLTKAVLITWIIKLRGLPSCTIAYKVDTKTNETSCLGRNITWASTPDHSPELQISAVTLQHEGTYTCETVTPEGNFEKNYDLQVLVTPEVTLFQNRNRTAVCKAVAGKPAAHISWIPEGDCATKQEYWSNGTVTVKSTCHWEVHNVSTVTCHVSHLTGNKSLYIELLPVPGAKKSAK
Protocol: Recombinant proteins were produced from the extracellular Ig-like V-type domain and Ig-like C2-type domain of human CD200R1, each designed as human-mouse (HM hybrid domain) and mouse-human (MH hybrid domain) recombinant proteins. A 96-well plate was coated at a concentration of 1 μg/mL with each protein at 4° C. for 16 hours and blocked with 3% skim milk. […] After color development with TMB substrate solution (Thermo Scientific, 34029, 1-Step™ Ultra TMB-ELISA Substrate Solution), the color reaction was stopped with a stop solution (Invitrogen, SS04, ELISA Stop Solution), and the absorbance was measured at an O.D. of 450 nm.

[7] = biological target: T6, human CD200R1 expressed on cells …; test: flow cytometry on Jurkat-CD200R1 and HH cells, 500 nM antibody in IgG1 form
Protocol: The cells were washed by centrifugation at 130 g for 5 minutes. The cells were seeded onto 96-well round-bottom plates (SPL, #34296) at a density of 1×10⁵ cells/well in Flow cytometry staining buffer (Invitrogen, #00-4222-26) or FACS buffer. […] After incubation for 1 hour at 4° C., the cells were treated with Alexa-647 Goat anti-human IgG (H+L) cross-adsorbed secondary antibody (Invitrogen, #A21445) and incubated at 4° C. for an additional 30 minutes. After washing twice with FACS buffer, flow cytometry analysis was performed using a Novocyte Flow cytometer (Agilent).

binding result [1]: no binding (tested: 300 nM) | binding result [2]: no binding (tested: 300 nM) | binding result [3]: no binding (tested: 300 nM)
B1: P001011 (IgG) (antibody, V domains shown)
VH: EVQLLESGGGLVQPGGSLRLSCAASGFTFSDYYMSWVRQAPGKGLEWVSWISSGGGSTYYADSVKGRFTISRDNSKNTLYLQMNSLGAEDTAVYYCARVRGTCNGTLCYYSNAMDVWGQGTLVTVSS
VL: QSVLTQPPSASGTPGQRVTISCTGSSSNIGSNDVSWYQQLPGTAPKLLIYDDNHRPSGVPDRFSGSKSGTSASLAISGLRSEDEADYYCGTWDASLNAYVFGGGTKLTVL

Kd [4]: 0.0286 nM | koff [4]: 8.08e-05 s⁻¹ | kon [4]: 2.82e+06 M⁻¹ s⁻¹
B2: P001009v2 (antibody, V domains shown)
VH: EVQLLESGGGLVQPGGSLRLSCAASGFTFSSYDMSWVRQAPGKGLEWVSWISHGGGSIYYADSVKGRFTISRDNSKNTLYLQMNSLRAEDTAVYYCARDAPAYSAPLFDYWGQGTLVTVSS
VL: QSVLTQPPSASGTPGQRVTISCSGSSSNIGNNAVNWYQQLPGTAPKLLIYYDKNRPSGVPDRFSGSKSGTSASLAISGLRSEDEADYYCAAWDRSLSGYVFGGGTKLTVL
notes: P001009 with LC S52K and D93R (Kabat); also called P019001v2
Kd [5]: 0.87 nM | koff [5]: 0.00654 s⁻¹ | kon [5]: 7.52e+06 M⁻¹ s⁻¹ | EC50 [6]: 3.08 nM

binding result [1]: no binding (tested: 300 nM) | binding result [3]: no binding (tested: 300 nM)
B3: P001003 (IgG) (antibody, V domains shown)
VH: EVQLLESGGGLVQPGGSLRLSCAASGFTFSDYAMSWVRQAPGKGLEWVSAISHGGSSKYYADSVKGRFTISRDNSKNTLYLQMNSLRAEDTAVYYCARGPEVMLEFDYWGQGTLVTVSS
VL: B2 VL with S23T, N35T, Y51S, K53N, N54H, R94S
binding result (Hybrid CD200R1 MH): no binding (tested: 300 nM)

binding result [2]: no binding (tested: 300 nM) | binding result [3]: no binding (tested: 300 nM)
B4: P001007 (IgG) (antibody, V domains shown)
VH: EVQLLESGGGLVQPGGSLRLSCAASGFTFSNYDMSWVRQAPGKGLEWVSAISYDNGNTYYADSVKGRFTISRDNSKNTLYLQMNSLRAEDTAVYYCARNRAWFDYWGQGTLVTVSS
VL: B2 VL with A33N, N35Y, K53S, N54Q, R94A, S97N

binding result [1]: no binding (tested: 300 nM) | binding result [3]: no binding (tested: 300 nM)
B5: P001006 (IgG) (antibody, V domains shown)
VH: EVQLLESGGGLVQPGGSLRLSCAASGFTFSDYAMSWVRQAPGKGLEWVSGISYGNGNTYYADSVKGRFTISRDNSKNTLYLQMNSLRAEDTAVYYCAKDPWQTAINDFDYWGQGTLVTVSS
VL: B2 VL with S23T, A33S, Y51T, D52N, K53S, N54H, G58E, A90G, A91T, R94S
MFI normalized to P001017 (chimeric OX108), % [7]: > 50%

Kd [4]: 0.0822 nM | koff [4]: 0.000305 s⁻¹ | kon [4]: 3.71e+06 M⁻¹ s⁻¹
B6: P001009v4 (antibody, V domains shown)
VH: B2 VH
VL: B2 VL with N32K, K53S, R94D
notes: P001009 with LC N31K (Kabat); also called P019001v4
Kd [5]: 1.04 nM | koff [5]: 0.007 s⁻¹ | kon [5]: 6.74e+06 M⁻¹ s⁻¹ | EC50 [6]: 2.37 nM

Kd [4]: 1.15 nM | koff [4]: 7.09 s⁻¹ | kon [4]: 6.14e+09 M⁻¹ s⁻¹
B7: P001009v3 (antibody, V domains shown)
VH: B2 VH
VL: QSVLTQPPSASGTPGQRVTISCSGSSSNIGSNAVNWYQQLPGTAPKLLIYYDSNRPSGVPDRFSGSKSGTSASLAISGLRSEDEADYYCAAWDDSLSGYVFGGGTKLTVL
notes: P001009 with LC N30S (Kabat); also called P019001v3
Kd [5]: 0.109 nM | koff [5]: 0.000452 s⁻¹ | kon [5]: 4.16e+06 M⁻¹ s⁻¹ | EC50 [6]: 0.33 nM
